Results reported in patent US20190015483A1 (CSL BEHRING RECOMBINANT FACILITY, published 2019).
Residue numbers refer to the chain shown, from its start. In names and notes the source's numbering stands.

T1: recombinant Factor VIII (CSL627, rVIII-SingleChain) (Homo sapiens (Human), UniProt P00451 20-2351)
T1 construct: also called FVIII
T1 sequence: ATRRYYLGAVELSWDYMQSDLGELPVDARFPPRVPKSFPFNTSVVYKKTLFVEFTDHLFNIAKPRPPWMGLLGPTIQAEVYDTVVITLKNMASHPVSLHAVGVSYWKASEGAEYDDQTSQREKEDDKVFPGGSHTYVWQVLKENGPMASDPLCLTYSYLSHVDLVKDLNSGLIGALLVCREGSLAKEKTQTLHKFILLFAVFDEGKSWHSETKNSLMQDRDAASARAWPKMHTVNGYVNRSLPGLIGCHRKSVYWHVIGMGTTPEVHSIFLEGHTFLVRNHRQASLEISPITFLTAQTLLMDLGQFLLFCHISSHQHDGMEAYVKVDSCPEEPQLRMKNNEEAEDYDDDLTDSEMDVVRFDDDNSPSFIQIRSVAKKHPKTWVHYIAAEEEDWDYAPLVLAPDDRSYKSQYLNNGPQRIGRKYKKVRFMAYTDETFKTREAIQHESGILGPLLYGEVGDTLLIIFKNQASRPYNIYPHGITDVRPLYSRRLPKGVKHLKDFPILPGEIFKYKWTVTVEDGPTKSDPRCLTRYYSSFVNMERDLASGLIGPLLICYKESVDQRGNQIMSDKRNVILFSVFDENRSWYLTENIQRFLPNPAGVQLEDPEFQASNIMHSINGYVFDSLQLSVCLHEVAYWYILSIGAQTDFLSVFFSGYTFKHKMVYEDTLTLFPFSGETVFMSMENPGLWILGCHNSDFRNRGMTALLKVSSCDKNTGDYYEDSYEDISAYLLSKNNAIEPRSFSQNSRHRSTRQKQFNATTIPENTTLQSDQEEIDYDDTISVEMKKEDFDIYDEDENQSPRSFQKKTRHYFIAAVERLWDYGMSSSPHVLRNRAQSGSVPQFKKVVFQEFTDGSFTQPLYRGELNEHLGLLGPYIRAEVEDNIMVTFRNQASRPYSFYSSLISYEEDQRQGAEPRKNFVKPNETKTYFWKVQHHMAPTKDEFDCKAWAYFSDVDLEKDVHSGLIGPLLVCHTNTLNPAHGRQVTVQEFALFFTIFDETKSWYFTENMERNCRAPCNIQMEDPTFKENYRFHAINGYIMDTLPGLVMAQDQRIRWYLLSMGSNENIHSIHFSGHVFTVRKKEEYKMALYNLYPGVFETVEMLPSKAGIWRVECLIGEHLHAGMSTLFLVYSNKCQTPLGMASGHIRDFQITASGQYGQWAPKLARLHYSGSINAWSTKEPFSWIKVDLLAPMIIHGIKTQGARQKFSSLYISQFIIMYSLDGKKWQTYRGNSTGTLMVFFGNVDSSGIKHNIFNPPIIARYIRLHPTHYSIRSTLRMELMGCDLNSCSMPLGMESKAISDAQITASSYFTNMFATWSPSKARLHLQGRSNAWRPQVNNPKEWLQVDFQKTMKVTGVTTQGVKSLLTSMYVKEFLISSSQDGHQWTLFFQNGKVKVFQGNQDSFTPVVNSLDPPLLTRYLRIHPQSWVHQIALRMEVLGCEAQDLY

B1: Hu-vWF[764-1270]-8His S766Y-P769D (other)
chain: SLYCRDPMVKLVCPADNLRAEGLECTKTCQNYDLECMSMGCVSGCLCPPGMVRHENRCVALERCPCFHQGKEYAPGETVKIGCNTCVCRDRKWNCTDHVCDATCSTIGMAHYLTFDGLKYLFPGECQYVLVQDYCGSNPGTFRILVGNKGCSHPSVKCKKRVTILVEGGEIELFDGEVNVKRPMKDETHFEVVESGRYIILLLGKALSVVWDRHLSISVVLKQTYQEKVCGLCGNFDGIQNNDLTSSNLQVEEDPVDFGNSWKVSSQCADTRKVPLDSSPATCHNNIMKQTMVDSSCRILTSDVFQDCNKLVDPEPYLDVCIYDTCSCESIGDCACFCDTIAAYAHVCAQHGKVVTWRTATLCPQSCEERNLRENGYECEWRYNSCAPACQVTCQHPEPLACPVQCVEGCHAHCPPGKILDELLQTCVDPEDCPVCEVAGRRFASGKKVTLNPSDPEHCQICHCDVVNLTCEACQEPGGLVVPPTDAPVSPTTLYVEDISEPPLHDFHHHHHHHH
B2: Hu-vWF[764-1270]-8His S766Y-R768H (other)
chain: B1 chain with R5H, D6P
B3: Hu-vWF[764-1270]-8His S766Y-R768S (other)
chain: B1 chain with R5S, D6P
B4: Hu-vWF[764-1270]-8His S766Y-P769N (other)
chain: B1 chain with D6N
B5: Hu-vWF[764-1270]-8His S766Y-R768T (other)
chain: B1 chain with R5T, D6P
B6: Hu-vWF[764-1270]-8His S766Y-P769I (other)
chain: B1 chain with D6I
B7: Hu-vWF[764-1270]-8His S766Y-R768D (other)
chain: B1 chain with R5D, D6P
B8: Hu-vWF[764-1270]-8His S766Y-R768Q (other)
chain: B1 chain with R5Q, D6P
B9: Hu-vWF[764-1270]-8His S766Y-R768V (other)
chain: B1 chain with R5V, D6P
B10: Hu-vWF[764-1270]-8His S766Y-P769K (other)
chain: B1 chain with D6K
B11: Hu-vWF[764-1270]-8His S766Y-R768A (other)
chain: B1 chain with R5A, D6P
B12: Hu-vWF[764-1270]-8His S766Y-R768F (other)
chain: B1 chain with R5F, D6P
B13: Hu-vWF[764-1270]-8His S766Y-R768E (other)
chain: B1 chain with R5E, D6P
B14: Hu-vWF[764-1270]-8His S766Y-R768I (other)
chain: B1 chain with R5I, D6P
B15: Hu-vWF[764-1270]-8His S766Y-P769Y (other)
chain: B1 chain with D6Y
B16: Hu-vWF[764-1270]-8His S766Y-P769M (other)
chain: B1 chain with D6M
B17: Hu-vWF[764-1270]-8His S766Y-P769W (other)
chain: B1 chain with D6W
B18: Hu-vWF[764-1270]-8His S766Y-P769F (other)
chain: B1 chain with D6F
B19: Hu-vWF[764-1270]-8His S766Y-R768G (other)
chain: B1 chain with R5G, D6P
B20: Hu-vWF[764-1270]-8His S766Y-P769E (other)
chain: B1 chain with D6E
B21: Hu-vWF[764-1270]-8His S766Y-R768M (other)
chain: B1 chain with R5M, D6P
B22: Hu-vWF[764-1270]-8His S766Y-P769H (other)
chain: B1 chain with D6H
B23: Hu-vWF[764-1270]-8His S766Y-P769V (other)
chain: B1 chain with D6V
B24: Hu-vWF[764-1270]-8His S766Y-R768N (other)
chain: B1 chain with R5N, D6P
B25: Hu-vWF[764-1270]-8His S766Y-R768K (other)
chain: B1 chain with R5K, D6P
B26: Hu-vWF[764-1270]-8His S766Y-P769R (other)
chain: B1 chain with D6R
B27: Hu-vWF[764-1270]-8His S766Y-R768L (other)
chain: B1 chain with R5L, D6P
B28: Hu-vWF[764-1270]-8His S766Y-P769Q (other)
chain: B1 chain with D6Q
B29: Hu-vWF[764-1270]-8His S766Y-P769L (other)
chain: B1 chain with D6L
B30: Hu-vWF[764-1270]-8His S766Y-P769T (other)
chain: B1 chain with D6T
B31: Hu-vWF[764-1270]-8His S766Y-R768P (other)
chain: B1 chain with R5P, D6P
B32: Hu-vWF[764-1270]-8His S766Y-R768W (other)
chain: B1 chain with R5W, D6P
B33: Hu-vWF[764-1270]-8His S766Y-P769S (other)
chain: B1 chain with D6S
B34: Hu-vWF[764-1270]-8His S766Y-P769G (other)
chain: B1 chain with D6G

The binders below were run against T1, recombinant Factor VIII (CSL627, …) (assay: SPR, anti-His capture, FVIII injected, 37 C).
Summary of the method: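 His-tagged mutants were captured directly from culture medium onto an anti-His surface (14,000 RU) at 40-150 RU. FVIII at 1 nM was injected for 5 min, followed by 5 min dissociation. Double-referenced sensorgrams were fitted to a 1:1 kinetic model.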

Kd [nM]	koff [s⁻¹]	kon [M⁻¹ s⁻¹]	binding result	Binder
0.165	0.000763	4.63e+06		B1
0.172	0.00069	4.02e+06		B2
0.243	0.00129	5.33e+06		B3
0.0325	0.00052	1.6e+07		B4
0.256	0.00143	5.59e+06		B5
			no binding	B6
0.908	0.00448	4.94e+06		B7
0.174	0.000606	3.48e+06		B8
0.203	0.000918	4.51e+06		B9
0.0607	0.000383	6.31e+06		B10
0.212	0.00148	6.99e+06		B11
0.279	0.00182	6.51e+06		B12
0.569	0.00322	5.65e+06		B13
0.179	0.000899	5.03e+06		B14
0.0847	0.000396	4.68e+06		B15
0.108	0.000511	4.75e+06		B16
0.0882	0.000421	4.77e+06		B17

Kd [nM]	koff [s⁻¹]	kon [M⁻¹ s⁻¹]	binding result	Binder
0.0772	0.000427	5.54e+06		B18
0.32	0.00102	3.2e+06		B19
0.0936	0.000414	4.42e+06		B20
0.196	0.000801	4.08e+06		B21
0.0809	0.000417	5.16e+06		B22
0.0849	0.000565	6.65e+06		B23
0.191	0.000798	4.18e+06		B24
0.109	0.000417	3.83e+06		B25
0.045	0.000295	6.55e+06		B26
0.129	0.000548	4.24e+06		B27
			no binding	B28
0.0917	0.00059	6.44e+06		B29
0.0979	0.0005	5.11e+06		B30
0.213	0.00143	6.71e+06		B31
0.213	0.00094	4.42e+06		B32
0.113	0.000511	4.51e+06		B33
0.212	0.000783	3.7e+06		B34
